This note sets out measurements from article PMC6580467.

For this assay, the target named is C-type lectin-like receptor 2 (CLEC-2) on platelets (human (endogenous in platelets of healthy donors)) (UniProt Q9P126).
Sequence of UniProt Q9P126 (Q9P126 whole entry): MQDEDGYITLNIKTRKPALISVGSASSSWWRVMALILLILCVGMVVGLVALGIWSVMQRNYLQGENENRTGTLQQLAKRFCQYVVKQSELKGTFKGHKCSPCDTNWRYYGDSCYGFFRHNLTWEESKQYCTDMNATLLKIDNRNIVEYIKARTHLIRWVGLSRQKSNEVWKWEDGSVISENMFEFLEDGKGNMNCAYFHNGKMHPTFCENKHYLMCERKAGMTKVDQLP

B1: Podoplanin (PDPN), endogenous on human cancer cell lines (natural protein)
chain: ASTGQPEDDTETTGLEGGVAMPGAEDDVVTPGTSEDRYKSGLTTLVATSVNSVTGIRIEDLPTSESTVHAQEQSPSATASNVATSHSTEKVDGDTQTTVEKDGLSTVTLVGIIVGVLLAIGFIGAIIVVVMRKMSGRYSP
As to B1, the inhibition by mAb SZ168 (10, 15 μg/mL) of platelet aggregation induced by NCI-H226 cells in human platelet-rich plasma; maximal inhibition ratio amounted to 74.2%; the inhibition by mAb SZ168 (15, 20 μg/mL) of platelet aggregation induced by C8161 cells in human platelet-rich plasma; maximal inhibition ratio at 20 μg/mL amounted to 73.9%; the inhibition by mAb SZ168 (20, 25 μg/mL) of platelet aggregation induced by CNE-2 cells in human platelet-rich plasma; maximal inhibition ratio at 25 μg/mL worked out at 77.1%.

B2: Human podoplanin expressed on CHO cells (CHO/hPDPN) (natural protein)
chain: ASTGQPEDDTETTGLEGGVAMPGAEDDVVTPGTSEDRYKSGLTTLVATSVNSVTGIRIEDLPTSESTVHAQEQSPSATASNVATSHSTEKVDGDTQTTVEKDGLSTVTLVGIIVGVLLAIGFIGAIIVVVMRKMSGRYSP
As for B2, the inhibition by mAb SZ168 (10, 15 μg/mL) of platelet aggregation induced by CHO/hPDPN cells in human platelet-rich plasma; maximal inhibition ratio is 72.6%.
